Results taken from article PMC7838873, “Purification and Characterization of Recombinant Expressed Apple Allergen Mal d 1” (Methods and Protocols, 2020).

Tests used:
[1] = molecular target: recombinant apple allergen Mal d 1 with a C-terminal polyhistidine-tag (apple (Malus domestica)) (UniProt Q9SYW3); experiment: SDS-PAGE without added reducing agent + in-gel tryptic digestion with HPLC-MS/MS; purified protein after storage at -20 °C, freeze-thawing or freeze-drying (Tris, phosphate or urea buffer); denatured at 95 °C in SDS Laemmli sample buffer, Coomassie stain, band proportions by Fiji; band of higher molecular weight identified by peptides; dimer survives SDS, probably held by a disulfide bridge
[2] = molecular target: the molecule itself; experiment: as above

Row | Molecule | stoichiometry N [1] | stoichiometry N [2]
1 | recombinant apple allergen Mal d 1 with a C-terminal polyhistidine-tag (from UniProt Q9SYW3 1-159) (natural protein) | 2 | 
2 | recombinant apple allergen Mal d 1 without polyhistidine-tag (natural protein, apple (Malus domestica), UniProt Q9SYW3 1-159, looked up, n = 159 residues used for the CD calculation; pET-28b(+) vector, NcoI/XhoI, insert 485 bp; also called r-Mal d 1; source: E. coli BL21 star (DE3)pLysS, purified (anion-exchange chromatography, TOYOPEARL SuperQ-650S or GigaCap Q-650M)) MGVYTFENEFTSEIPPSRLFKAFVLDADNLIPKIAPQAIKQAEILEGNGGPGTIKKITFGEGSQYGYVKHRIDSIDEASYSYSYTLIEGDALTDTIEKISYETKLVACGSGSTIKSISHYHTKGNIEIKEEHVKAGKEKAHGLFKLIESYLKDHPDAYN |  | 2
